Numbered stars: 1 amine (or outer) side, 2 acyl side, 3 side chain; on linkers, the order of the positions; unused ones are H or OH. Bridge positions count the residues as written; N and C are the ends. * marks the point of attachment. C20 diacid = O=C(O)CCCCCCCCCCCCCCCCCCC(=O)*; γGlu = O=C(O)[C@H](CCC(=O)[*:2])N[*:1]
T1: human amylin receptor (amylin 3(a) receptor: human calcitonin receptor plus RAMP-3) (human, UniProt P30988 25-474; O60896 24-148, limits assumed)
T1 sequence (looked up) 1: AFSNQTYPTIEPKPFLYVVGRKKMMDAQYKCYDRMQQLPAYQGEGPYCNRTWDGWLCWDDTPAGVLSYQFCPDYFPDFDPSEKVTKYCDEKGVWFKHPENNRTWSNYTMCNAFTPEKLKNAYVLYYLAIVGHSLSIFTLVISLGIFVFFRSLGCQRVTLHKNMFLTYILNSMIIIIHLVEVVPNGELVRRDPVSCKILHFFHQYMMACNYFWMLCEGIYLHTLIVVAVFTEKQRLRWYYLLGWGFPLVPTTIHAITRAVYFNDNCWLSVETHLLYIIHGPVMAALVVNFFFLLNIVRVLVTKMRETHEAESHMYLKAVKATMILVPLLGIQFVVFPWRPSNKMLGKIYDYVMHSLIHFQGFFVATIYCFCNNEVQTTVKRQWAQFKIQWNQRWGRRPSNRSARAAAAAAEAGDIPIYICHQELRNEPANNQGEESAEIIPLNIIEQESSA
T1 sequence (looked up) 2: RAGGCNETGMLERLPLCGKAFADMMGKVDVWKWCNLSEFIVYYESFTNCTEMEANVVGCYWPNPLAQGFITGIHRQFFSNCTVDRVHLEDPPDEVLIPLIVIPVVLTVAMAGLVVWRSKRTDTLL

T2: human calcitonin receptor (human, UniProt P30988 25-474)
T2 sequence (looked up): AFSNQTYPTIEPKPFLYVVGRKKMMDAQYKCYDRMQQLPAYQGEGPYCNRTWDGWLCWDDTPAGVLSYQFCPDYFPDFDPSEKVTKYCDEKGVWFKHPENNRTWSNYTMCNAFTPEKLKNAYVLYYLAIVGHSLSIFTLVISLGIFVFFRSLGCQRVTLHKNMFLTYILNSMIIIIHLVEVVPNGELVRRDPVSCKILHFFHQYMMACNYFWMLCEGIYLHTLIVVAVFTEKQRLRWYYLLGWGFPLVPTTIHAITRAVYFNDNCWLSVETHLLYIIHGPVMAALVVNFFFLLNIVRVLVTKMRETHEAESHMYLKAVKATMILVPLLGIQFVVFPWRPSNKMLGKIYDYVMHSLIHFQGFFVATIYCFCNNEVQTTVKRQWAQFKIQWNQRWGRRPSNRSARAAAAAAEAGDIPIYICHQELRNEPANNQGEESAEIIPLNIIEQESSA


What was measured:
[1] = target: T1, human amylin receptor (amylin 3(a) …); experiment: cell-based or functional assay
[2] = target: T2, human calcitonin receptor; experiment: cell-based or functional assay
[3] = target: T1, human amylin receptor (amylin 3(a) …); experiment: SPA competition binding, membranes of Amylin 3(a)/CRE-luc BHK cells, displacement of 125I-rat amylin (Assay V)
Protocol: The binding assay was performed using scintillation proximity assay (SPA) beads (RPNQ0001) from PerkinElmer and cell membranes from the Amylin 3(a)/CRE-luc cells (as described in Assay (II)) were used. Membranes were prepared in the following way; the cells were rinsed with PBS and incubated with Versene for approximately 5 min before harvesting. The cells were flushed with PBS and the cell-suspension was centrifuged for 5 min at 1000 rpm. Cells were homogenized (ultrathurrax) in a buffer containing 20 mM Na-HEPES and 10 mM EDTA (pH 7.4) and centrifuged at 20.000 rpm for 15 min. The resulting pellet was resuspended, homogenized and centrifuged (20.000 rpm, 15 min) in a buffer containing 20 mM Na-HEPES and 0.1 mM EDTA (pH 7.4, buffer 2). The resulting pellet was resuspended in buffer 2 and protein concentration was measured (BCA protein Assay, Pierce). The homogenate was kept cold during the whole procedure. The membranes were kept at −80° C. until use. The assay was performed in a 384 well Optiplate (PerkinElmer) in a total volume of 40 ul. Membranes were mixed with SPA beads. Final concentration of membranes 35 ng/μL final and SPA beads was 0.05 mg/well. Test-compounds were dissolved in DMSO and further diluted in assay buffer (50 mM Hepes, pH 7.4, 1 mM CaCl2, 5 mM MgCl₂, 0.1% OA and 0.02% Tween20). […] The final mixture was incubated with shaking at 400 rpm for 120 min at 25° C. prior to centrifugation (1500 rpm, 10 min). Samples were analyzed on TopCounter™ (Packard). The IC₅₀ was calculated using (one site binding competition analysis) GraphPad Prism5 as a measure of receptor affinity.

Row | Binder | hAmylin-R funct. EC50 [1] | Ratio hCT/hAmylin funct. (hCTR EC50 against hAmylin-R EC50) [2] | hCTR funct. EC50 [2] | IC50 [3]
1 | {C20 diacid-γGlu}-KCNTATCATQRLADFLRHSSPNFGAIPSSTNVGSNTP-NH2 (disulfide 2-7; SMILES CC[C@H](C)[C@H](NC(=O)[C@H](C)NC(=O)CNC(=O)[C@H](Cc1ccccc1)NC(=O)[C@H](CC(N)=O)NC(=O)[C@@H]1CCCN1C(=O)[C@H](CO)NC(=O)[C@H](CO)NC(=O)[C@H](Cc1c[nH]cn1)NC(=O)[C@H](CCCNC(=N)N)NC(=O)[C@H](CC(C)C)NC(=O)[C@H](Cc1ccccc1)NC(=O)[C@H](CC(=O)O)NC(=O)[C@H](C)NC(=O)[C@H](CC(C)C)NC(=O)[C@H](CCCNC(=N)N)NC(=O)[C@H](CCC(N)=O)NC(=O)[C@@H](NC(=O)[C@H](C)NC(=O)[C@@H]1CSSC[C@H](NC(=O)[C@H](CCCCN)NC(=O)CC[C@H](NC(=O)CCCCCCCCCCCCCCCCCCC(=O)O)C(=O)O)C(=O)N[C@@H](CC(N)=O)C(=O)N[C@@H]([C@@H](C)O)C(=O)N[C@@H](C)C(=O)N[C@@H]([C@@H](C)O)C(=O)N1)[C@@H](C)O)C(=O)N1CCC[C@H]1C(=O)N[C@@H](CO)C(=O)N[C@@H](CO)C(=O)N[C@H](C(=O)N[C@@H](CC(N)=O)C(=O)N[C@H](C(=O)NCC(=O)N[C@@H](CO)C(=O)N[C@@H](CC(N)=O)C(=O)N[C@H](C(=O)N1CCC[C@H]1C(N)=O)[C@@H](C)O)C(C)C)[C@@H](C)O, also called compound 10) | 0.072 nM | 1 | 0.07 nM | 0.082 nM
2 | {C20 diacid-γGlu}-KCNTATCATQRLAEFLRHSSPNFGAIPSSTNVGHNTY-NH2 (disulfide 2-7; SMILES CC[C@H](C)[C@H](NC(=O)[C@H](C)NC(=O)CNC(=O)[C@H](Cc1ccccc1)NC(=O)[C@H](CC(N)=O)NC(=O)[C@@H]1CCCN1C(=O)[C@H](CO)NC(=O)[C@H](CO)NC(=O)[C@H](Cc1c[nH]cn1)NC(=O)[C@H](CCCNC(=N)N)NC(=O)[C@H](CC(C)C)NC(=O)[C@H](Cc1ccccc1)NC(=O)[C@H](CCC(=O)O)NC(=O)[C@H](C)NC(=O)[C@H](CC(C)C)NC(=O)[C@H](CCCNC(=N)N)NC(=O)[C@H](CCC(N)=O)NC(=O)[C@@H](NC(=O)[C@H](C)NC(=O)[C@@H]1CSSC[C@H](NC(=O)[C@H](CCCCN)NC(=O)CC[C@H](NC(=O)CCCCCCCCCCCCCCCCCCC(=O)O)C(=O)O)C(=O)N[C@@H](CC(N)=O)C(=O)N[C@@H]([C@@H](C)O)C(=O)N[C@@H](C)C(=O)N[C@@H]([C@@H](C)O)C(=O)N1)[C@@H](C)O)C(=O)N1CCC[C@H]1C(=O)N[C@@H](CO)C(=O)N[C@@H](CO)C(=O)N[C@H](C(=O)N[C@@H](CC(N)=O)C(=O)N[C@H](C(=O)NCC(=O)N[C@@H](Cc1c[nH]cn1)C(=O)N[C@@H](CC(N)=O)C(=O)N[C@H](C(=O)N[C@@H](Cc1ccc(O)cc1)C(N)=O)[C@@H](C)O)C(C)C)[C@@H](C)O, also called compound 17) | 0.268 nM | 8.8 | 2.35 nM | 0.878 nM

Continued by falling IC50 [3], values first:

Row | hAmylin-R funct. EC50 [1] | Ratio hCT/hAmylin funct. (hCTR EC50 against hAmylin-R EC50) [2] | hCTR funct. EC50 [2] | IC50 [3] | Binder
3 | 0.092 nM | 4 | 0.372 nM | 0.97 nM | {C20 diacid-γGlu}-KCNTATCATQRLAEFLRHSSPNFGAIPSPTNVGSNTY-NH2 (disulfide 2-7; SMILES CC[C@H](C)[C@H](NC(=O)[C@H](C)NC(=O)CNC(=O)[C@H](Cc1ccccc1)NC(=O)[C@H](CC(N)=O)NC(=O)[C@@H]1CCCN1C(=O)[C@H](CO)NC(=O)[C@H](CO)NC(=O)[C@H](Cc1c[nH]cn1)NC(=O)[C@H](CCCNC(=N)N)NC(=O)[C@H](CC(C)C)NC(=O)[C@H](Cc1ccccc1)NC(=O)[C@H](CCC(=O)O)NC(=O)[C@H](C)NC(=O)[C@H](CC(C)C)NC(=O)[C@H](CCCNC(=N)N)NC(=O)[C@H](CCC(N)=O)NC(=O)[C@@H](NC(=O)[C@H](C)NC(=O)[C@@H]1CSSC[C@H](NC(=O)[C@H](CCCCN)NC(=O)CC[C@H](NC(=O)CCCCCCCCCCCCCCCCCCC(=O)O)C(=O)O)C(=O)N[C@@H](CC(N)=O)C(=O)N[C@@H]([C@@H](C)O)C(=O)N[C@@H](C)C(=O)N[C@@H]([C@@H](C)O)C(=O)N1)[C@@H](C)O)C(=O)N1CCC[C@H]1C(=O)N[C@@H](CO)C(=O)N1CCC[C@H]1C(=O)N[C@H](C(=O)N[C@@H](CC(N)=O)C(=O)N[C@H](C(=O)NCC(=O)N[C@@H](CO)C(=O)N[C@@H](CC(N)=O)C(=O)N[C@H](C(=O)N[C@@H](Cc1ccc(O)cc1)C(N)=O)[C@@H](C)O)C(C)C)[C@@H](C)O, also called compound 37)
4 | 0.154 nM | 4.8 | 0.742 nM | 0.554 nM | {C20 diacid-γGlu}-KCNTATCATQRLAEFLRHSSPNFGAIPSSTNVGSHTY-NH2 (disulfide 2-7; SMILES CC[C@H](C)[C@H](NC(=O)[C@H](C)NC(=O)CNC(=O)[C@H](Cc1ccccc1)NC(=O)[C@H](CC(N)=O)NC(=O)[C@@H]1CCCN1C(=O)[C@H](CO)NC(=O)[C@H](CO)NC(=O)[C@H](Cc1c[nH]cn1)NC(=O)[C@H](CCCNC(=N)N)NC(=O)[C@H](CC(C)C)NC(=O)[C@H](Cc1ccccc1)NC(=O)[C@H](CCC(=O)O)NC(=O)[C@H](C)NC(=O)[C@H](CC(C)C)NC(=O)[C@H](CCCNC(=N)N)NC(=O)[C@H](CCC(N)=O)NC(=O)[C@@H](NC(=O)[C@H](C)NC(=O)[C@@H]1CSSC[C@H](NC(=O)[C@H](CCCCN)NC(=O)CC[C@H](NC(=O)CCCCCCCCCCCCCCCCCCC(=O)O)C(=O)O)C(=O)N[C@@H](CC(N)=O)C(=O)N[C@@H]([C@@H](C)O)C(=O)N[C@@H](C)C(=O)N[C@@H]([C@@H](C)O)C(=O)N1)[C@@H](C)O)C(=O)N1CCC[C@H]1C(=O)N[C@@H](CO)C(=O)N[C@@H](CO)C(=O)N[C@H](C(=O)N[C@@H](CC(N)=O)C(=O)N[C@H](C(=O)NCC(=O)N[C@@H](CO)C(=O)N[C@@H](Cc1c[nH]cn1)C(=O)N[C@H](C(=O)N[C@@H](Cc1ccc(O)cc1)C(N)=O)[C@@H](C)O)C(C)C)[C@@H](C)O, also called compound 18)
5 | 0.12 nM | 0.9 | 0.112 nM | 0.105 nM | {C20 diacid-γGlu}-KCNTATCATQRLAEFLRHSSPNFGAIPSSTNVGSDTP-NH2 (disulfide 2-7; SMILES CC[C@H](C)[C@H](NC(=O)[C@H](C)NC(=O)CNC(=O)[C@H](Cc1ccccc1)NC(=O)[C@H](CC(N)=O)NC(=O)[C@@H]1CCCN1C(=O)[C@H](CO)NC(=O)[C@H](CO)NC(=O)[C@H](Cc1c[nH]cn1)NC(=O)[C@H](CCCNC(=N)N)NC(=O)[C@H](CC(C)C)NC(=O)[C@H](Cc1ccccc1)NC(=O)[C@H](CCC(=O)O)NC(=O)[C@H](C)NC(=O)[C@H](CC(C)C)NC(=O)[C@H](CCCNC(=N)N)NC(=O)[C@H](CCC(N)=O)NC(=O)[C@@H](NC(=O)[C@H](C)NC(=O)[C@@H]1CSSC[C@H](NC(=O)[C@H](CCCCN)NC(=O)CC[C@H](NC(=O)CCCCCCCCCCCCCCCCCCC(=O)O)C(=O)O)C(=O)N[C@@H](CC(N)=O)C(=O)N[C@@H]([C@@H](C)O)C(=O)N[C@@H](C)C(=O)N[C@@H]([C@@H](C)O)C(=O)N1)[C@@H](C)O)C(=O)N1CCC[C@H]1C(=O)N[C@@H](CO)C(=O)N[C@@H](CO)C(=O)N[C@H](C(=O)N[C@@H](CC(N)=O)C(=O)N[C@H](C(=O)NCC(=O)N[C@@H](CO)C(=O)N[C@@H](CC(=O)O)C(=O)N[C@H](C(=O)N1CCC[C@H]1C(N)=O)[C@@H](C)O)C(C)C)[C@@H](C)O, also called compound 11)

Reference: patent publication US20140087995A1 (published 2014)
